Laboratory results published in patent publication US20170129962A1 (Hoffmann-La Roche, published 2017).
Residue numbers refer to the chain shown, from its start. Numbers in names are those of the source.

Tests used:
TWEAK = target: T1, TWEAK (human, UniProt O43508 94-249, limits assumed); experiment: SPR (Biacore), TWEAK amine-coupled on C1 chip, bispecific antibody as analyte, 1:1 Langmuir
T1 construct: The method paragraph says only 'TWEAK'; also called human TWEAK; TNF-related weak inducer of apoptosis
T1 sequence (looked up): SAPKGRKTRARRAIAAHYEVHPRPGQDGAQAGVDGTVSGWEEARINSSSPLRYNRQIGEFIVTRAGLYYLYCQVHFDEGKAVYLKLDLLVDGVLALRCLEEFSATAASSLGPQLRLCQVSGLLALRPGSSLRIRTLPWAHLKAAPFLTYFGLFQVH
Procedure: Around 100 RU of TWEAK was immobilized on the C1 chip surface at pH 5.0 using an amine coupling kit supplied by the GE Healthcare. The sample and system buffer was PBS-T (10 mM phosphate buffered saline including 0.05% Tween 20) pH 7.4. Association was measured by injection the bispecific antibody in various concentrations in solution for 3 min at a flow of 30 μl/min starting with 50 nM in 1:1 serial dilutions. The dissociation phase was monitored for up to 10 min and triggered by switching from the sample solution to running buffer. The surface was regenerated three times by 30 sec wash with a 3 M MgCl2 solution at a flow rate of 30 μl/min. Bulk refractive index differences were corrected by subtracting the response obtained from a blank-coupled surface. Blank injections are also subtracted (=double referencing). For calculation of KD and other kinetic parameters, the Langmuir 1:1 model was used.
(§1) Binding of the multispecific antibodies to their respective target antigens, i.e. IL17 and TWEAK, was assessed by Biacore® as described in the general methods section.

human IL17 [1] = target: T2, human IL17 (human, UniProt Q16552 24-155); experiment: SPR (Biacore), bispecific antibody captured by anti-human F(ab')2, human IL17 as analyte, 1:1 Langmuir, apparent KD
T2 construct: for that reason an apparent KD is reported; also called IL17-A
T2 sequence (looked up): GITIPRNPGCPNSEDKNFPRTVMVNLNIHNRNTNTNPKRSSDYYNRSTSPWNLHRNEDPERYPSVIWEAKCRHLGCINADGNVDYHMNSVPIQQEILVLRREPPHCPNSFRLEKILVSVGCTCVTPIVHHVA
Procedure: (§2) Around 6000 resonance units (RU) of the capturing system (15 μg/ml goat anti human F(ab′)2; Order Code: 28958325; GE Healthcare Bio-Sciences AB, Schweden) were coupled on a CMS chip at pH 5.0 by using an amine coupling kit supplied by the GE Healthcare. The sample and system buffer was PBS-T (10 mM phosphate buffered saline including 0.05% Tween 20) pH 7.4. The bispecific antibody was captured by injecting a 50 nM solution for 90 sec at a flow of 10 μl/min. Association was measured by injection human IL17 in various concentrations in solution for 3 min at a flow of 30 μl/min starting with 50 nM in 1:1 serial dilutions. The dissociation phase was monitored for up to 10 min and triggered by switching from the sample solution to running buffer. The surface was regenerated twice by 60 sec wash with a 10 mM glycine pH 2.1 solution at a flow rate of 30 μl/min. Bulk refractive index differences were corrected by subtracting the response obtained from a goat anti human F(ab′)2 surface. Blank injections are also subtracted (=double referencing). For calculation of apparent KD and other kinetic parameters, the Langmuir 1:1 model was used.
as §1

human IL17 [2] = target: T2, human IL17; experiment: SPR (Biacore), bispecific antibody captured by anti-human F(ab')2, human IL17 as analyte, 1:1 Langmuir
Procedure: as §2, §1

B1: TweakIL17-0049 (bispecific antibody, human IgG4 S228P, kappa)
light 1: DIVMTQSPLSLPVTPGEPASISCRSSQSLVHSNGDTYFHWYLQKPGQSPQLLIYKVSNRFSGVPDRFSGSGSGTDFTLKISRVEAEDVGVYYCSQTTHAPFTFGQGTKLEIKRTVAAPSVFIFPPSDEQLKSGTASVVCLLNNFYPREAKVQWKVDNALQSGNSQESVTEQDSKDSTYSLSSTLTLSKADYEKHKVYACEVTHQGLSSPVTKSFNRGEC
heavy 1: EVQLVESGGGLVQPGGSLRLSCAASGFSLDSYGVHWVRQATGKGLEWVSVIWSDGTTTYNSALKSRFTISRENAKNSLYLQMNSLRAGDTAVYYCARDTHYRLYYYAMDYWGQGTTVTVSSASTKGPSVFPLAPCSRSTSESTAALGCLVKDYFPEPVTVSWNSGALTSGVHTFPAVLQSSGLYSLSSVVTVPSSSLGTKTYTCNVDHKPSNTKVDKRVESKYGPPCPPCPAPEFEGGPSVFLFPPKPKDTLMISRTPEVTCVVVDVSQEDPEVQFNWYVDGVEVHNAKTKPREEQFNSTYRVVSVLTVLHQDWLNGKEYKCKVSNKGLPSSIEKTISKAKGQPREPQVCTLPPSQEEMTKNQVSLSCAVKGFYPSDIAVEWESNGQPENNYKTTPPVLDSDGSFFLVSRLTVDKSRWQEGNVFSCSVMHEALHNHYTQKSLSLSLGK
light 2: DIQMTQSPSSVSASVGDRVTITCQASQNIYSNLAWYQQKPGKAPKLLIYTASYLASGVPSRFSGSGSGTDYTLTISSLQPEDFATYYCQTAYYNSRPDTVAFGGGTKVEIKSSASTKGPSVFPLAPCSRSTSESTAALGCLVKDYFPEPVTVSWNSGALTSGVHTFPAVLQSSGLYSLSSVVTVPSSSLGTKTYTCNVDHKPSNTKVDKRVESKYG
heavy 2: QVQLVQSGAEVKKPGSSVKVSCKASGFDFSTYYMSWVRQAPGQGLEWMGTVYVRQGTTYYASWLNGRVTITADESTSTAYMELSSLRSEDTAVYYCARGGYNYDDAFVIWGQGTLVTVSSASVAAPSVFIFPPSDEQLKSGTASVVCLLNNFYPREAKVQWKVDNALQSGNSQESVTEQDSKDSTYSLSSTLTLSKADYEKHKVYACEVTHQGLSSPVTKSFNRGECPPCPPCPAPEFEGGPSVFLFPPKPKDTLMISRTPEVTCVVVDVSQEDPEVQFNWYVDGVEVHNAKTKPREEQFNSTYRVVSVLTVLHQDWLNGKEYKCKVSNKGLPSSIEKTISKAKGQPREPQVYTLPPCQEEMTKNQVSLWCLVKGFYPSDIAVEWESNGQPENNYKTTPPVLDSDGSFFLYSRLTVDKSRWQEGNVFSCSVMHEALHNHYTQKSLSLSLGK
notes: also called TweakIL17-0049 (control)
For B1, the Kd (TWEAK) was < 0.1 nM, the koff (TWEAK) was 4.82e-05 s⁻¹ and the kon (TWEAK) was 1.27e+06 M⁻¹ s⁻¹. For the same binder, the Kd (human IL17 [1]) was < 0.1 nM, the koff (human IL17 [2]) was 0.000123 s⁻¹ and the kon (human IL17 [2]) was 1.34e+06 M⁻¹ s⁻¹.

B2: TweakIL17-0130 (bispecific antibody, human IgG4 S228P, kappa)
light 1: B1 light 1 with E128K
heavy 1: B1 heavy 1 with K217E
light 2: B1 light 2
heavy 2: B1 heavy 2
notes: CrossMAb CH1-CL, knob-into-hole with S354C/Y349C
With B2 the Kd (TWEAK) was < 0.1 nM, the koff (TWEAK) was 2.83e-05 s⁻¹ and the kon (TWEAK) was 859000 M⁻¹ s⁻¹. The Kd (human IL17 [1]) was < 0.1 nM, the koff (human IL17 [2]) was 0.000194 s⁻¹ and the kon (human IL17 [2]) was 1.04e+07 M⁻¹ s⁻¹.

B3: TweakIL17-0132 (bispecific antibody, human IgG4 S228P, kappa)
light 1: B1 light 1 with E128K, Q129R
heavy 1: B1 heavy 1 with K151E, K217E
light 2: B1 light 2
heavy 2: B1 heavy 2
notes: as for B2
With B3 the Kd (TWEAK) was < 0.1 nM, the koff (TWEAK) was 4.79e-05 s⁻¹ and the kon (TWEAK) was 1.17e+06 M⁻¹ s⁻¹. For the same binder, the Kd (human IL17 [1]) was < 0.1 nM, the koff (human IL17 [2]) was 0.00013 s⁻¹ and the kon (human IL17 [2]) was 1.39e+06 M⁻¹ s⁻¹.

B4: TweakIL17-0134 (bispecific antibody, human IgG4 S228P, kappa)
light 1: B1 light 1 with Q129K
heavy 1: B1 heavy 1 with K151E
light 2: B1 light 2
heavy 2: B1 heavy 2 with Q137E
notes: as for B2
In the case of B4, the Kd (TWEAK) is reported as < 0.1 nM, the koff (TWEAK) is reported as 3e-05 s⁻¹ and the kon (TWEAK) is reported as 870000 M⁻¹ s⁻¹. For the same binder, the Kd (human IL17 [1]) was < 0.1 nM, the koff (human IL17 [2]) was 0.000208 s⁻¹ and the kon (human IL17 [2]) was 1.1e+07 M⁻¹ s⁻¹.
